# Assay results reported in the RNAGym collection of RNA variant scans (doi:10.1073/pnas.2313332121).
# B1: TPR t1 (parent)
# chain: GACCAAUCUGCCCUCAGAGCUCGAGAACAUCUUCGGAUGCAGAGGAGGCAGGCUUCGGUGGCGCGAUAGCGCCAACGUCCUCAACCUCCAAUGCAUCCCACCACAUGAUGAUGCCUGAAGAGCCUUGGUUUUUUG
# Variants of: B1
# Experiment: polymerase ribozyme fitness, log enrichment relative to wild type (log ratio); higher = more active; in vitro selection for triplet polymerase activity
# Procedure, shortened: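 Mutant libraries of each subunit of a heterodimeric triplet polymerase ribozyme were built by PCR and transcribed. Each library went through one round of in vitro selection in triplicate: annealing with biotinylated primer, partner subunit and triplets, frozen incubation at −7 °C, gel excision of extended constructs, streptavidin-bead capture and RT-PCR. Input and output libraries were Illumina-sequenced; only genotypes with ≥10 input reads and ≥1 read per output were kept. Fitness is log2(genotype enrichment/wild-type enrichment), using inverse-variance-weighted replicate averages.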
row,Variant,polymerase ribozyme fitness (log ratio)
1,GACCAAUCUGCCCUCAUGGCUCGAGAACAUCUUCGGAUGCAGAGGAGGCAGGCUUGGGUGGCGCGAUAGCGCCAACGUCCUCAGCCUCCAAUGCAUCCCACCACAUGAUGAUGCCUGAAGAGCCUUGGUUGUUUG [G17U A18G C56G A84G U131G],-5.98
2,GACCAAUCUGCCCUCACAGCUCGAGAACAUCUUCGGAUGCAGAGGAGGCAGGCUUCGGUGUCGCGAUAGCGCCAACGUCCUCAACCUCCAAUGCAUCCCACCACAUGAUGAUGACUGAAGAGCCUUGGUUUUUUG [G17C G61U C114A],-5.45
3,GACCAAUCUGCCCUCAUAGCUCGAGAACAUCUUAGGAUGCAGAGGAGGCAGGCUUCGGUGGCGCGAUAGCGCCAACGUCCUCAACCUCCAAUGCAUCCCACCACAUGAUGAUGCCUGAAGAGCGUUGGUUUUAUG [G17U C34A C124G U133A],-2.78
4,GACCAAUCUGCCCUCAUAGCUCGAGAACAUCUUCGGAUGCAGAGGAGGCAGGCUUCGGUGGCGCGAUAGCGCCAACGUCCUCAACCUCCAAUGCAUCCCACCACAUGAUGAUGCCUGUAGAGCCUUGGUUUUUUG [G17U A118U],-3.56
5,GACCAAUCUGCCCUCAUAGCUCGAGAACAUCUUCGGAUGCAGAGGAGGCAGGCUUUGGUGGCGCGAUAGCGCCAACGUCCUCAACCUCCAAUGCAUCCCACCACAUGAUGAUGCCUGAAGAGCCUUGGUUUUUUG [G17U C56U],-2.12
6,GACCAAUCUGCCCUCAUAGCUCGAGAACAUCUUCGGAUGCAGAGGAGGCAGGCUUGGGUGGCGCGAUAGCGCCAACGUCCUCAACCUCCAAUGCAUCCCACCACAUGAUGAUGCCUGAAGAGCCUUGGUUUUUUG [G17U C56G],-3.08
7,GACCAAUCUGCCCUCAUAGCUCGAGAACAUCUUCGGAUGCAGUGGAGGCAGGCUUCGGUGGCGCGAUAGCGCCAACGUCCUCAACCUCCAAUGCAUCCCACCACAUGAUGAUGCCUGAAGAGCCUUGGUUUUUUG [G17U A43U],-3.34
8,GACCAAUCUGCCCUCAUAGAUCGAGAACAUCUUCGGAUGCAGAGGAGGCAGGCUUCGGUGUCGCGAUAGCGCCAACGUCCUCAACCACCAAUGCAUCCCACCACAUGAUGAUGCCUGAAGAGCCUUGGUUUUUUG [G17U C20A G61U U87A],-4.07
9,GACCAAUCUGCCCUCACAGCUCGAGAACAUCUUCGGAUGCAGAGGAGGCAGGCUUCGGUGGCGCGAUAUCGCCAACGUCCUCAACCUCCAAUGCAUCCCACCACAUGAUGAUGCCUGAAGAGCCUUGGUUUUUUG [G17C G69U],-2.68
10,GACCAAUCUGCCCUCACAGCUCGAGAACAUCUUCGGAUGCAGAGGAGGCAGGCUUCGGUGGCGCGAUAGCGCCAACGUCCUCAACCUCCAAUGCAUCCCACCACAUGAUGAUGCCUGAACAGCCUUGGUUUUUUG [G17C G120C],-1.58
11,GACCAAUCUGCCCUCAUAGCUCGAGAACAUCUUCGGAUGCAGAGGAGGCAGGCUUCGGUGGCGCGAUAGCGCCAACGUCCUCGACCUCCAAUGCAUCCCACCACAUGAUGAUGCCUGAAGAGCCUUGGUUUUUUG [G17U A83G],-2.64
12,GACCAAUCUGCCCUCACAGCUCGAGAACAUCUUCGGAUGCAGAGGAGGCAGGCUGAGGUGGCCCGAUAGCGCCAACUUCCUCAACCUCCAAUGCAUCCCACCACAUGAUGAUACCUGAAGAGCCUUGGUUUUUUG [G17C U55G C56A G63C G77U G113A],-5.71
13,GACCAAUCUGCCCUCAUAGCUCGAGAAUAUCUUCGGAUACAGAGGAGGCAGGCUUCGGUGGCGCGAUAGCGCCAACGUCCUCAACCUCCAAUGCAUCCCACCACAUGAUAAUGCCUGAAGAGCCUUGGUUUUUUG [G17U C28U G39A G110A],-2.46
14,GACCAAUCUGCCCUCAUAGCUCGAGAACAUCUUAGGAUGCAGAGGAGGCAGGCUUCGGUGGCACGAUAGCGCCAACGUUCUCAACCUCCAAUGCAUCCCACCACAUGAUGAUGCAUGAAGAGCCUUGGUUUUUUG [G17U C34A G63A C79U C115A],-3.37
15,GACCAAUCUGCCCUCAUAGCUCGAGAACAUCUUCGGAUGCAGUGGAGGCAGGCUUCGGUGGCGCGAUAGCGCCAACGUCCUCAACCUCCAAUGCAUCCCACCACAUGAUGAUGCCUGAUGAGCCUUGGUUUUUUG [G17U A43U A119U],-5.06
16,GACCAAUCUGCCCUCAUAGCUCGAGAACAUCUUCGGAUGCAGAGGAGGCAGGCUUCGGUGGCGCGAUAGCGCCAACGUCCUCAACCUCCAAUGCAUCCCACCACAUGAUGGUGCCUGAAGAGCCUUGGUUUUGUG [G17U A111G U133G],-2.2
17,GACCAAUCUGCCCUCAUAGCUCGAGAACAUCUUCGGAUGCAGAGGAGGCAGGCUUCGGUGGCGCGAUAGCGCCAACGUCCUCAUCCUCCAAUGCAUCCCACCACAUGAUGAUGCCUGAAGAGCCUUGGUUUUUUG [G17U A84U],-2.44
18,GACCAAUCUGCCCUCACAGCUCGAGAACAUCUUCGGAUGCAGAGGAGGCAGGCUUCGGUGGCGCGAUAUCGCCAACGUCCUCAACCUCCAAUGCAUCCCACCACAUGAUGAUGCCUGAAUAGCCUUGAUUUUUUG [G17C G69U G120U G128A],-2.65
19,GACCAAUCUGCCCUCAUAGCUCGAGAACAUCUUCGGUUGCAGAGGAGGCAGGCUUCGGUAGCGCGAUAGCGCCAACGUCCUCAACCUCCAAUGCAUCCCACCACAUGAUGAUGCCUGAAGAGCCUUGGUUUUUUG [G17U A37U G60A],-2.43
20,GACCAAUCUGCCCUCACAGCUCGAGAACAUCUUCGGAUGCAGAGGAGGCAGGCUUCGGUGGCGCGAUAGCGCCAACGUCCUCAACCUCCAAUGCAUCCCACCACAAGAUGAUGCCUGAAGAGCCUUGGUUUUUUG [G17C U106A],-4.68
21,GACCAAUCUGCCCUCAUAGCUCGAGAACGUCUUCGGAUGCAGAGGAGGCAGGCUACGGUGGCGCGAUAGCGCCAACGUCCUCAACCUCCAAUGCAUCCCACCACAUGAUGAUGCCUGAAGAGCCUUGGUUUUUUG [G17U A29G U55A],-4.06
